These results are taken from patent US8679765B2, “Methods and compositions for diagnosis and treatment of malignant and non-malignant gammopathies” (Ludwig Institute for Cancer Research Ltd., priority 2009, dated 2014).

The subject of assay [1] is paratarg-specific paraprotein (patients' sera). Put plainly: Paraprotein binding to recombinant paratarg, stomatin family members and paratarg peptides/fragments (dot blot, ELISA, peptide spot analysis). The arrangement: species or system human. As to conditions: for recognition by paratarg-specific paraproteins / patients' serum: ELISA, Western blotting or peptide spot analysis. Here is the method:
100 ng of each recombinant protein were separated by SDS-PAGE and transferred to PVDF membrane (Millipore Immobilon) by semidry blotting. The membrane was blocked in TST/milk buffer (10% milk in 10 mM Tris/HCl, pH 7.5, 150 mM NaCl, 0.1% (v/v) Tween 20) overnight, washed and incubated for 1 h with serum in TST (paraprotein patients serum at a dilution of 1:10^8 and control patients serum at a dilution of 1:10^3). After three washings in TST, the membranes were incubated for 1 h at RT with goat anti-human IgG AP-coupled antibody (Dianova) diluted 1:5,000 in TST, subsequently washed in TST followed by AP-development.
His6-tagged fusion proteins were spotted on nitrocellulose membranes. After spotting, the protein arrays were blocked, incubated and detected as described above.
The epitopes recognized by the patients' paraproteins were identified as described before (Preuss et al, 2006). In brief: matrix-bound synthesized decamer peptides with 5 amino acids overlaps between every 2nd consecutive decamer covering the entire paratarg sequence were used to screen patients sera. Paratarg-specific paraproteins binding to the corresponding paratarg epitopes were visualized by ECL technique according to the suppliers' instructions (PIERCE, Rockford, USA). Finally, matrix stripes were photographed for documentation.
Full-length paratarg was recombinantly expressed in HEK293 cells under control of CMV promoter introducing a FLAG tag at the C-terminus of the protein. Total cell extract was prepared and coated indirectly to Nunc maxisorb plates using anti-FLAG mAb (Sigma). Elisa was performed according standard protocols. Partially truncated paratarg fragments were processed accordingly.
Paratarg fragments were obtained by PCR amplification using suitable primers and verified by sequencing. These fragments were subcloned into the vector and expressed as described before.

The test system of assay [2] is paraproteins of serum pool #1 (MGUS/MM patients' sera). Briefly: Serum profiling on high density protein arrays (paraprotein screening of hEx1 human fetal brain macroarray). The note with it: serum pool #1 (n=114), each serum diluted 1:10^8. The arrangement: key: Paraprotein-binding quality/strength are ++, + and ±.; Paraprotein-binding quality/strength are ++, + and ±.; Paraprotein-binding quality/strength are ++, + and ±. The assay is classed as binding. On the procedure: Screening analyses were performed on hEx1 high-density protein expression cDNA libraries, created in Hans Lehrach's laboratory at the Max Planck Institute for Molecular Genetics in Berlin (Germany) and obtained from the Reference Center of the German Human Genome Project (RZPD) (Bussow et al, 1998). These high-density filter membranes display proteins that were expressed from a modified pQE protein expression vector (Qiagen). This vector featured a hexahistidine tag, a T5 promoter and two lac operator sequences, which allowed repression during the growth phase by overexpression of the Lac repressor protein, and subsequent induction of protein expression with isopropyl-beta-D-thiogalactopyranoside (IPTG).
High density protein arrays of the protein expression set of the hEx1 library were obtained from the German Resource Center for Genome Research (RZPD) and provided by Dr. Mahlknecht from our department. They consist of 37,200 independent clones derived from a human fetal brain cDNA expression library and were used for autoantibody detection. For serum profiling, the filters were blocked in 10% (w/v) non-fat, dry milk powder in TBST (TBS, 0.1% (v/v) Tween 20) at 4° C. overnight, washed twice in TBST, and incubated for 1 h with serum pool #1 at a dilution of 1:10^8 for each serum. Following three 30-min TBST washes and subsequent incubation with the secondary antibody (goat anti-human IgG biotinylated, Dianova, diluted 1:2.500) and Strep-PDX (1:15.000) in 2% (w/v) Milk/TBST, the filters were washed three times for 30 min in TBST. This was followed by detection using Pharmacia ECL system. Positive signals were localized according to the manufacturer's protocol. Corresponding clones were obtained from RZPD.
In this study we screened a human high-density protein array containing 37,200 independent recombinant proteins derived from a human fetal brain expression library with sera obtained from patients with monoclonal gammopathy of undetermined significance (MGUS) and multiple myeloma (MM).
The signal pattern obtained from the screening with the paraprotein pools at a dilution of 1:10^8 were compared with the patterns obtained from screening with the control sera from clinically healthy donors and to background incubations. […] 5′- and 3′-tag sequencing of these clones was performed, and their sequences were used for BLAST searches against public databases at NCBI.
Using serum pool #1 (paraprotein type: 15 IgA, 88 IgG, 11 oligoclonal, n=114) we identified 14 putative paraprotein targets on the human protein filter array (FIG. 1, Tab. 1). […] Sequence searches and comparisons using the in-frame sequences identified five known proteins and one unknown gene product derived from chromosome 8.

“SLLASGRAPRRASSG [15 amino acid region near the N-terminal end of paratarg]”: the “recognition by paratarg-specific paraproteins / patients' serum” value in assay [1] is “recognized by patients' serum”.
Still for that read-out and setting: in the case of SLLASGRAP [paratarg amino acid region] it was “recognized”; in that of “stomatin: recombinantly expressed human stomatin family member”, “no signal”.

B1: paratarg: stomatin-like protein 2 (SLP-2), SEQ ID NO: 1, antigenic paraprotein target (protein, listed as Homo sapiens)
chain: MLARAARGTGALLLRGSLLASGRAPRRASSGLPRNTVVLFVPQQEAWVVERMGRFHRILEPGLNILIPVLDRIRYVQSLKEIVINVPEQSAVTLDNVTLQIDGVLYLRIMDPYKASYGVEDPEYAVTQLAQTTMRSELGKLSLDKVFRERESLNASIVDAINQAADCWGIRCLRYEIKDIHVPPRVKESMQMQVEAERRKRATVLESEGTRESAINVAEGKKQAQILASEAEKAEQINQAAGEASAVLAKAKAKAEAIRILAAALTQHNGDAAASLTVAEQYVSAFSKLAKDSNTILLPSNPGDVTSMVAQAMGVYGALTKAPVPGTPDSLSSGSSRDVQGTDASLDEELDRVKMS
As to B1, the “serum dilution at which recognition was detectable” value in assay [1] (individual patient sera) is reported as 10^10. Besides, the “titer of paraprotein-containing sera reacting with the antigen” value in assay [1] (sera of more than two patients) is > 10^8.

B2: MPMGp800E08596: RZPD clone coding for paratarg (protein)
chain: B1 chain
modifications: left off: small tags and cut ends
notes: RZPD clone coding for paratarg
As for B2, the “Signal-quality (paraprotein-binding quality/strength)” value in assay [2] is recorded as “++”.

B3: MPMGp800P18577: RZPD clone, NM_004323.3 (protein, UniProt Q99933 1-345, looked up)
BAG family molecular …: MAQRGGARRPRGDRERLGSRLRALRPGREPRQSEPPAQRGPPPSGRPPARSTASGHDRPTRGAAAGARRPRMKKKTRRRSTRSEELTRSEELTLSEEATWSEEATQSEEATQGEEMNRSQEVTRDEESTRSEEVTREEMAAAGLTVTVTHSNEKHDLHVTSQQGSSEPVVQDLAQVVEEVIGVPQSFQKLIFKGKSLKEMETPLSALGIQDGCRVMLIGKKNSPQEEVELKKLKHLEKSVEKIADQLEELNKELTGIQQGFLPKDLQAEALCKLDRRVKATIEQFMKILEEIDTLILPENFKDSRLKRKGLVKKVQAFLAECDTVEQNICQETERLQSTNFALAE
As to B3, the “Signal-quality (paraprotein-binding quality/strength)” value in assay [2] is given as “+”.

B4: SLP-1: recombinantly expressed human stomatin family member (protein)
chain: MLGRSGYRALPLGDFDRFQQSSFGFLGSQKGCLSPERGGVGTGADVPQSWPSCLCHGLISFLGFLLLLVTFPISGWFALKIVPTYERMIVFRLGRIRTPQGPGMVLLLPFIDSFQRVDLRTRAFNVPPCKLASKDGAVLSVGADVQFRIWDPVLSVMTVKDLNTATRMTAQNAMTKALLKRPLREIQMEKLKISDQLLLEINDVTRAWGLEVDRVELAVEAVLQPPQDSPAGPNLDSTLQQLALHFLGGSMNSMAGGAPSPGPADTVEMVSEVEPPAPQVGARSSPKQPLAEGLLTALQPFLSEALVSQVGACYQFNVVLPSGTQSAYFLDLTTGRGRVGHGVPDGIPDVVVEMAEADLRALLCRELRPLGAYMSGRLKVKGDLAMAMKLEAVLRALK
Consider B4, for which the “recognition by paratarg-specific paraproteins / patients' serum” value in assay [1] was “no signal”.

B5: MPMGp800E08580: RZPD clone, NM_004819.1 (protein, UniProt Q92797 1-1274, looked up)
Symplekin: MASGSGDSVTRRSVASQFFTQEEGPGIDGMTTSERVVDLLNQAALITNDSKITVLKQVQELIINKDPTLLDNFLDEIIAFQADKSIEVRKFVIGFIEEACKRDIELLLKLIANLNMLLRDENVNVVKKAILTMTQLYKVALQWMVKSRVISELQEACWDMVSAMAGDIILLLDSDNDGIRTHAIKFVEGLIVTLSPRMADSEIPRRQEHDISLDRIPRDHPYIQYNVLWEEGKAALEQLLKFMVHPAISSINLTTALGSLANIARQRPMFMSEVIQAYETLHANLPPTLAKSQVSSVRKNLKLHLLSVLKHPASLEFQAQITTLLVDLGTPQAEIARNMPSSKDTRKRPRDDSDSTLKKMKLEPNLGEDDEDKDLEPGPSGTSKASAQISGQSDTDITAEFLQPLLTPDNVANLVLISMVYLPEAMPASFQAIYTPVESAGTEAQIKHLARLMATQMTAAGLGPGVEQTKQCKEEPKEEKVVKTESVLIKRRLSAQGQAISVVGSLSSMSPLEEEAPQAKRRPEPIIPVTQPRLAGAGGRKKIFRLSDVLKPLTDAQVEAMKLGAVKRILRAEKAVACSGAAQVRIKILASLVTQFNSGLKAEVLSFILEDVRARLDLAFAWLYQEYNAYLAAGASGSLDKYEDCLIRLLSGLQEKPDQKDGIFTKVVLEAPLITESALEVVRKYCEDESRTYLGMSTLRDLIFKRPSRQFQYLHVLLDLSSHEKDKVRSQALLFIKRMYEKEQLREYVEKFALNYLQLLVHPNPPSVLFGADKDTEVAAPWTEETVKQCLYLYLALLPQNHKLIHELAAVYTEAIADIKRTVLRVIEQPIRGMGMNSPELLLLVENCPKGAETLVTRCLHSLTDKVPPSPELVKRVRDLYHKRLPDVRFLIPVLNGLEKKEVIQALPKLIKLNPIVVKEVFNRLLGTQHGEGNSALSPLNPGELLIALHNIDSVKCDMKSIIKATNLCFAERNVYTSEVLAVVMQQLMEQSPLPMLLMRTVIQSLTMYPRLGGFVMNILSRLIMKQVWKYPKVWEGFIKCCQRTKPQSFQVILQLPPQQLGAVFDKCPELREPLLAHVRSFTPHQQAHIPNSIMTILEASGKQEPEAKEAPAGPLEEDDLEPLTLAPAPAPRPPQDLIGLRLAQEKALKRQLEEEQKLKPGGVGAPSSSSPSPSPSARPGPPPSEEAMDFREEGPECETPGIFISMDDDSGLTEAALLDSSLEGPLPKETAAGGLTLKEERSPQTLAPVGEDAMKTPSPAAEDAREPEAKGNS
For B5, the “Signal-quality (paraprotein-binding quality/strength)” value in assay [2] is “+”.

B6: MPMGp800P21581: RZPD clone, NM_001622.1 (protein, UniProt P02765 19-300; P02765 341-367, looked up)
Alpha-2-HS-glycoprotein chain … 1: APHGPGLIYRQPNCDDPETEEAALVAIDYINQNLPWGYKHTLNQIDEVKVWPQQPSGELFEIEIDTLETTCHVLDPTPVARCSVRQLKEHAVEGDCDFQLLKLDGKFSVVYAKCDSSPDSAEDVRKVCQDCPLLAPLNDTRVVHAAKAALAAFNAQNNGSNFQLEEISRAQLVPLPPSTYVEFTVSGTDCVAKEATEAAKCNLLAEKQYGFCKATLSEKLGGAEVAVTCMVFQTQPVSSQPQPEGANEAVPTPVVDPDAPPSPPLGAPGLPPAGSPPDSHVL
Alpha-2-HS-glycoprotein chain … 2: TVVQPSVGAAAGPVVPPCPGRIRHFKV
Turning to B6, the “Signal-quality (paraprotein-binding quality/strength)” value in assay [2] is listed as “+”.
